Source: patent US20180303952A1

How the values were obtained:
[1] = biological target: human CD147 on the surface of human cell lines (human) (UniProt P35613); test: cell-based or functional assay
[2] = biological target: human CD147 on the surface of human cell lines (human) (UniProt P35613); test: FACS on human KYSE-70 esophageal epithelial cell line, Alexa Fluor 647 goat anti-human IgG detection

B1: humanized anti-human CD147 monoclonal antibody hu 3A11 Lc1/Hc1 (antibody, V domains shown)
VH: EVQLVESGGGLVQPGGSLRLSCAASGFTFSNYWMDWVRQAPGKGLEWVGEIRLKSYNYATHYAASVKGRFTISRDDSKNSVYLQMNSLKTEDTAVYYCTAAGTDYWGQGTLVTVSS
VL: DIQMTQSPSSLSASVGDRVTITCRASQSVRTDVGWYQQKPGKAPKLLIYYSSNRYTGVPSRFSGSGSGTDFTLTISSLQPEDFATYYCQQDYSSPYTFGQGTKLEIK
Work on B1 yielded an EC50 of cytotoxicity, A253 cells (with vc-MMAE secondary antibody) [1] of under 1 nM, an EC50 of cytotoxicity, BHY cells (with vc-MMAE secondary antibody) [1] of under 1 nM and an EC50 of cytotoxicity, Detroit562 cells (with vc-MMAE secondary antibody) [1] of 0.008 nM. The EC50 of cytotoxicity, EFO-21 cells (with vc-MMAE secondary antibody) [1] was 1.4 nM, the EC50 of cytotoxicity, H69 cells (with vc-MMAE secondary antibody) [1] was 1 nM and the EC50 of cytotoxicity, H292 cells (with vc-MMAE secondary antibody) [1] was 0.07 nM. It also gave an EC50 of cytotoxicity, H358 cells (with vc-MMAE secondary antibody) [1] of 0.09 nM, an EC50 of cytotoxicity, H520 cells (with vc-MMAE secondary antibody) [1] of 11.2 nM and an EC50 of cytotoxicity, H1581 cells (with vc-MMAE secondary antibody) [1] of 0.039 nM. It also gave an EC50 of cytotoxicity, H1975 cells (with vc-MMAE secondary antibody) [1] of 0.09 nM, an EC50 of cytotoxicity, H2405 cells (with vc-MMAE secondary antibody) [1] of 0.3 nM and an EC50 of cytotoxicity, H2444 cells (with vc-MMAE secondary antibody) [1] of 1.8 nM. The EC50 of cytotoxicity, HCC 70 cells (with vc-MMAE secondary antibody) [1] was 0.94 nM, the EC50 of cytotoxicity, HCC1143 cells (with vc-MMAE secondary antibody) [1] was under 1 nM and the EC50 of cytotoxicity, HCC 1806 cells (with vc-MMAE secondary antibody) [1] was 0.68 nM. For the same binder, the EC50 of cytotoxicity, HCC1937 cells (with vc-MMAE secondary antibody) [1] was under 1 nM, the EC50 of cytotoxicity, HCC1954 cells (with vc-MMAE secondary antibody) [1] was under 1 nM and the EC50 of cytotoxicity, HCT 116 cells (with vc-MMAE secondary antibody) [1] was 1.8 nM. The EC50 of cytotoxicity, HPAC cells (with vc-MMAE secondary antibody) [1] was 0.21 nM, the EC50 of cytotoxicity, HPAF2 cells (with vc-MMAE secondary antibody) [1] was under 1 nM and the EC50 of cytotoxicity, KYSE70 cells (with vc-MMAE secondary antibody) [1] was 0.13 nM. For the same binder, the EC50 of cytotoxicity, KYSE150 cells (with vc-MMAE secondary antibody) [1] was 1.6 nM, the EC50 of cytotoxicity, LOVO cells (with vc-MMAE secondary antibody) [1] was under 1 nM and the EC50 of cytotoxicity, LS174T cells (with vc-MMAE secondary antibody) [1] was 1 nM. It also gave an EC50 of cytotoxicity, LS411N cells (with vc-MMAE secondary antibody) [1] of under 1 nM, an EC50 of cytotoxicity, PC3 cells (with vc-MMAE secondary antibody) [1] of under 1 nM and an EC50 of cytotoxicity, RT11-2/84 cells (with vc-MMAE secondary antibody) [1] of 1.94 nM. It also gave an EC50 of cytotoxicity, SCC1 cells (with vc-MMAE secondary antibody) [1] of 0.14 nM, an EC50 of cytotoxicity, SCC9 cells (with vc-MMAE secondary antibody) [1] of 0.37 nM and an EC50 of cytotoxicity, SCC25 cells (with vc-MMAE secondary antibody) [1] of 0.2 nM. It also gave an EC50 of cytotoxicity, SKOV3 cells (with vc-MMAE secondary antibody) [1] of 0.95 nM, an EC50 of cytotoxicity, SW1417 cells (with vc-MMAE secondary antibody) [1] of 0.8 nM and an EC50 of cytotoxicity, aspc1 cells (with vc-MMAE secondary antibody) [1] of 20.5 nM. It also gave an EC50 of cytotoxicity, miapaca1 cells (with vc-MMAE secondary antibody) [1] of 0.65 nM, an EC50 of cytotoxicity, sw48 cells (with vc-MMAE secondary antibody) [1] of under 1 nM and an EC50 of cytotoxicity, sw480 cells (with vc-MMAE secondary antibody) [1] of under 1 nM. It also gave an EC50 of in vitro cytotoxicity, A253 cells (with vc-MMAE secondary antibody) [1] of under 1 nM, an EC50 of in vitro cytotoxicity, AGS cells (with vc-MMAE secondary antibody) [1] of 0.09 nM and an EC50 of in vitro cytotoxicity, BHY cells (with vc-MMAE secondary antibody) [1] of under 1 nM. The EC50 of in vitro cytotoxicity, Detroit562 cells (with vc-MMAE secondary antibody) [1] was 0.008 nM, the EC50 of in vitro cytotoxicity, EFO-21 cells (with vc-MMAE secondary antibody) [1] was 1.4 nM and the EC50 of in vitro cytotoxicity, ESO26 cells (with vc-MMAE secondary antibody) [1] was 0.06 nM. It also gave an EC50 of in vitro cytotoxicity, FLO-1 cells (with vc-MMAE secondary antibody) [1] of 0.51 nM, an EC50 of in vitro cytotoxicity, H69 cells (with vc-MMAE secondary antibody) [1] of 1 nM and an EC50 of in vitro cytotoxicity, H226 cells (with vc-MMAE secondary antibody) [1] of 0.45 nM. The EC50 of in vitro cytotoxicity, H292 cells (with vc-MMAE secondary antibody) [1] was 0.07 nM, the EC50 of in vitro cytotoxicity, H358 cells (with vc-MMAE secondary antibody) [1] was 0.09 nM and the EC50 of in vitro cytotoxicity, H520 cells (with vc-MMAE secondary antibody) [1] was 11.2 nM. It also gave an EC50 of in vitro cytotoxicity, H1581 cells (with vc-MMAE secondary antibody) [1] of 0.039 nM, an EC50 of in vitro cytotoxicity, H1975 cells (with vc-MMAE secondary antibody) [1] of 0.09 nM and an EC50 of in vitro cytotoxicity, H2052 cells (with vc-MMAE secondary antibody) [1] of 0.03 nM. For the same binder, the EC50 of in vitro cytotoxicity, H2405 cells (with vc-MMAE secondary antibody) [1] was 0.3 nM, the EC50 of in vitro cytotoxicity, H2444 cells (with vc-MMAE secondary antibody) [1] was 1.8 nM and the EC50 of in vitro cytotoxicity, H2452 cells (with vc-MMAE secondary antibody) [1] was 0.94 nM. For the same binder, the EC50 of in vitro cytotoxicity, HCC 70 cells (with vc-MMAE secondary antibody) [1] was 0.94 nM, the EC50 of in vitro cytotoxicity, HCC1143 cells (with vc-MMAE secondary antibody) [1] was under 1 nM and the EC50 of in vitro cytotoxicity, HCC 1806 cells (with vc-MMAE secondary antibody) [1] was 0.68 nM. The EC50 of in vitro cytotoxicity, HCC1937 cells (with vc-MMAE secondary antibody) [1] was under 1 nM, the EC50 of in vitro cytotoxicity, HCC1954 cells (with vc-MMAE secondary antibody) [1] was under 1 nM and the EC50 of in vitro cytotoxicity, HCT 116 cells (with vc-MMAE secondary antibody) [1] was 1.8 nM. For the same binder, the EC50 of in vitro cytotoxicity, HPAC cells (with vc-MMAE secondary antibody) [1] was 0.21 nM, the EC50 of in vitro cytotoxicity, HPAF2 cells (with vc-MMAE secondary antibody) [1] was under 1 nM and the EC50 of in vitro cytotoxicity, HT29 (WIDR) cells (with vc-MMAE secondary antibody) [1] was 0.87 nM. For the same binder, the EC50 of in vitro cytotoxicity, Hs 746T cells (with vc-MMAE secondary antibody) [1] was 0.06 nM, the EC50 of in vitro cytotoxicity, KYSE70 cells (with vc-MMAE secondary antibody) [1] was 0.13 nM and the EC50 of in vitro cytotoxicity, KYSE150 cells (with vc-MMAE secondary antibody) [1] was 0.88 nM. It also gave an EC50 of in vitro cytotoxicity, KYSE410 cells (with vc-MMAE secondary antibody) [1] of 1.35 nM, an EC50 of in vitro cytotoxicity, LOVO cells (with vc-MMAE secondary antibody) [1] of under 1 nM and an EC50 of in vitro cytotoxicity, LS174T cells (with vc-MMAE secondary antibody) [1] of 1 nM. The EC50 of in vitro cytotoxicity, LS411N cells (with vc-MMAE secondary antibody) [1] was under 1 nM, the EC50 of in vitro cytotoxicity, MSTO-211H cells (with vc-MMAE secondary antibody) [1] was 0.37 nM and the EC50 of in vitro cytotoxicity, OACM5.1 C cells (with vc-MMAE secondary antibody) [1] was 1.1 nM. It also gave an EC50 of in vitro cytotoxicity, OE33 cells (with vc-MMAE secondary antibody) [1] of 0.29 nM, an EC50 of in vitro cytotoxicity, PC3 cells (with vc-MMAE secondary antibody) [1] of under 1 nM and an EC50 of in vitro cytotoxicity, RT11-2/84 cells (with vc-MMAE secondary antibody) [1] of 1.94 nM. It also gave an EC50 of in vitro cytotoxicity, SCC1 cells (with vc-MMAE secondary antibody) [1] of 0.14 nM, an EC50 of in vitro cytotoxicity, SCC9 cells (with vc-MMAE secondary antibody) [1] of 0.37 nM and an EC50 of in vitro cytotoxicity, SCC25 cells (with vc-MMAE secondary antibody) [1] of 0.2 nM. The EC50 of in vitro cytotoxicity, SK-GT-4 cells (with vc-MMAE secondary antibody) [1] was under 0.1 nM, the EC50 of in vitro cytotoxicity, SKBR3 cells (with vc-MMAE secondary antibody) [1] was 0.38 nM and the EC50 of in vitro cytotoxicity, SKOV3 cells (with vc-MMAE secondary antibody) [1] was 0.95 nM. It also gave an EC50 of in vitro cytotoxicity, SNU-1 cells (with vc-MMAE secondary antibody) [1] of 0.21 nM, an EC50 of in vitro cytotoxicity, SNU-5 cells (with vc-MMAE secondary antibody) [1] of 0.11 nM and an EC50 of in vitro cytotoxicity, SNU-16 cells (with vc-MMAE secondary antibody) [1] of 1.14 nM. For the same binder, the EC50 of in vitro cytotoxicity, SW1417 cells (with vc-MMAE secondary antibody) [1] was 0.8 nM, the EC50 of in vitro cytotoxicity, aspc1 cells (with vc-MMAE secondary antibody) [1] was 20.5 nM and the EC50 of in vitro cytotoxicity, miapaca1 cells (with vc-MMAE secondary antibody) [1] was 0.65 nM. It also gave an EC50 of in vitro cytotoxicity, sw48 cells (with vc-MMAE secondary antibody) [1] of under 1 nM, an EC50 of in vitro cytotoxicity, sw480 cells (with vc-MMAE secondary antibody) [1] of under 1 nM and a Kd [2] of 1.65 nM.
